In patent US6960559B1, “Neurite growth regulatory factors” (University of Zurich, priority 1988, dated 2005):
“And” between values parts separate entries of the source, which are not always exact repeats. Equal entries are not always repeated.

What was measured:
[1] = system: cbz-FAF[^125I]Y-NH2; test: Degradation of cbz-FAF[125I]Y-NH2 by defined proteases and C6 cell fractions; assay type: biochemical; details: 37° C., pH 7.4
Description: Preparation of plasma membrane from C6 cells was performed according to (Raper and Kapfhammer, 1990, Neuron 2:21-29) with some modifications. Briefly, C6 cells were cultured in 30 culture dishes (13.5 cm diameter). At confluency, the culture medium was removed and the cell layers were frozen to −20° C. All subsequent manipulations were performed at 4° C.: cell debris were collected using a rubber policeman in 100 ml CMF-Hank's and further homogenized by 10 strokes in a Dounce homogenizer with teflon plunger. A small aliquot of this suspension was stored at −20° C. and used later (homogenate-fraction). The nuclear pellet was obtained by low speed centrifugation (10 min, 1000×g) in a Sorvall S22 rotor and stored at […] A crude vesicular fraction was obtained by centrifugating the nuclear supernatant in a Sorvall S22 rotor (20,000×g, 30 min), and was resuspended in 10 ml CMF-Hank's. After adding 20 ml 2.25 M sucrose in CMF-Hank's, this suspension was loaded on 4×8 ml 2.25 M sucrose in CMF-Hank's and centrifuged at 80,000×g for 1 h in a Beckman SW28 motor. […]
(§1) For the quantification of the activity, the reaction was stopped by addition of an equal volume of chloroform. […] Activity is expressed as % radioactivity contained in the aqueous phase. 100% is the sum of the radioactivity of both phases.

[2] = system: C6 cells; test: C6 cell spreading on CNS myelin or PLYS with protease inhibitors; assay type: cell-based, rat; details: C6 cells; spreading on PLYS minus spreading on CNS myelin
Description: Rat C6, mouse NIH 3T3 and B16 cells were cultured in Dulbecco's modified Eagle's medium (DMEM) supplemented with 10% fetal calf serum (FCS), usually to maximally 70-80% confluency. Cells were harvested with a short trypsin treatment (0.1% in Ca^2+/Mg^2+-free Hank's medium for 90 seconds) stopped by addition of FCS in excess, collected by centrifugation. Cells were resuspended in either DMEM/FCS or defined serum-free medium (MEM) and used for experiments. […]
Myelin from rat spinal cord (CNS) or sciatic nerve (PNS) purified on a discontinuous sucrose gradient as described in Section 6.1.5., was dried overnight onto PLYS coated wells (20 μg protein/well of 100 mm^2 surface). […] Experiments were scored at different time points using a phase contrast microscope equipped with a photocamera. Quantifications were done using a surface integration program; three arbitrary fields were photographed for each well at a magnitude of 80×, at least 25 cells per picture were measured. […] Results are expressed as μ^2 of projected cell surface, or as degree, which was calculated by subtracting from the projected surface value of a spreading cell, the surface value of a completely spheric cell.

[3] = system: C6 plasma membrane associated metalloendoprotease; test: Enzyme assay: cbz-FAF[125I]Y-NH2 degradation by C6 plasma membranes with protease blockers; assay type: biochemical, rat
Description: For most experiments, 70-80% confluent cell layers (1 cm^2 wells, 100 μl MEMα) or 2-5 μg C6 plasma membrane (100 μl MEMα) were used. […] If indicated, cell layers or plasma membrane suspensions were preincubated for 30 min with protease blockers or peptides. NEM or iodacetamide incubations of plasma membranes were performed at pH 8.5. The incubation was stopped by loading a 10 μl aliquot of the incubation medium on a thin layer chromatography plate (10 cm height, Kieselgel 60 F254, MERCK, Germany) and air dried. […] Plates were then air dried and exposed on Kodak X-OMAT films (NY, USA) with an intensifying screen. To identify the degradation products on thin-layer chromatography, we run reference peptides under the same conditions.
as §1

Molecule | Amount necessary to degrade 50% of substrate in 30 min [1] | other results
papain: cysteine protease (protein, UniProt P00784 134-345, looked up) Papain: IPEYVDWRQKGAVTPVKNQGSCGSCWAFSAVVTIEGIIKIRTGNLNEYSEQELLDCDRRSYGCNGGYPWSALQLVAQYGIHYRNTYPYEGVQRYCRSREKGPYAAKTDGVRQVQPYNEGALLYSIANQPVSVVLEAAGKDFQLYRGGIFVGPCGNKVDHAVAAVGYGPNYILIKNSWGTGWGENGYIRIKRGTGNSYGVCGLYTSSFYPVKN | 2 µg and 2.0 µg | 
2-macroglobulin: general protease inhibitor (protein, UniProt P01023 24-1474, looked up) Alpha-2-macroglobulin: SVSGKPQYMVLVPSLLHTETTEKGCVLLSYLNETVTVSASLESVRGNRSLFTDLEAENDVLHCVAFAVPKSSSNEEVMFLTVQVKGPTQEFKKRTTVMVKNEDSLVFVQTDKSIYKPGQTVKFRVVSMDENFHPLNELIPLVYIQDPKGNRIAQWQSFQLEGGLKQFSFPLSSEPFQGSYKVVVQKKSGGRTEHPFTVEEFVLPKFEVQVTVPKIITILEEEMNVSVCGLYTYGKPVPGHVTVSICRKYSDASDCHGEDSQAFCEKFSGQLNSHGCFYQQVKTKVFQLKRKEYEMKLHTEAQIQEEGTVVELTGRQSSEITRTITKLSFVKVDSHFRQGIPFFGQVRLVDGKGVPIPNKVIFIRGNEANYYSNATTDEHGLVQFSINTTNVMGTSLTVRVNYKDRSPCYGYQWVSEEHEEAHHTAYLVFSPSKSFVHLEPMSHELPCGHTQTVQAHYILNGGTLLGLKKLSFYYLIMAKGGIVRTGTHGLLVKQEDMKGHFSISIPVKSDIAPVARLLIYAVLPTGDVIGDSAKYDVENCLANKVDLSFSPSQSLPASHAHLRVTAAPQSVCALRAVDQSVLLMKPDAELSASSVYNLLPEKDLTGFPGPLNDQDNEDCINRHNVYINGITYTPVSSTNEKDMYSFLEDMGLKAFTNSKIRKPKMCPQLQQYEMHGPEGLRVGFYESDVMGRGHARLVHVEEPHTETVRKYFPETWIWDLVVVNSAGVAEVGVTVPDTITEWKAGAFCLSEDAGLGISSTASLRAFQPFFVELTMPYSVIRGEAFTLKATVLNYLPKCIRVSVQLEASPAFLAVPVEKEQAPHCICANGRQTVSWAVTPKSLGNVNFTVSAEALESQELCGTEVPSVPEHGRKDTVIKPLLVEPEGLEKETTFNSLLCPSGGEVSEELSLKLPPNVVEESARASVSVLGDILGSAMQNTQNLLQMPYGCGEQNMVLFAPNIYVLDYLNETQQLTPEIKSKAIGYLNTGYQRQLNYKHYDGSYSTFGERYGRNQGNTWLTAFVLKTFAQARAYIFIDEAHITQALIWLSQRQKDNGCFRSSGSLLNNAIKGGVEDEVTLSAYITIALLEIPLTVTHPVVRNALFCLESAWKTAQEGDHGSHVYTKALLAYAFALAGNQDKRKEVLKSLNEEAVKKDNSVHWERPQKPKAPVGHFYEPQAPSAEVEMTSYVLLAYLTAQPAPTSEDLTSATNIVKWITKQQNAQGGFSSTQDTVVALHALSKYGAATFTRTGKAAQVTIQSSGTFSSKFQVDNNNRLLLQQVSLPELPGEYSMKVTGEGCVYLQTSLKYNILPEKEEFPFALGVQTLPQTCDEPKAHTSFQISLSVSYTGSRSASNMAIVDVKMVSGFIPLKPTVKMLERSNHVSRTEVSSNHVLIYLDKVSNQTLSLFFTVLQDVPVRDLKPAIVKVYDYYETDEFAIAEYNAPCSKDLGNA |  | Inhibition on CNS (%) [2]: 18%
tPA: tissue-type plasminogen activator (protein, UniProt P00750 36-562, looked up) Tissue-type plasminogen …: SYQVICRDEKTQMIYQQHQSWLRPVLRSNRVEYCWCNSGRAQCHSVPVKSCSEPRCFNGGTCQQALYFSDFVCQCPEGFAGKCCEIDTRATCYEDQGISYRGTWSTAESGAECTNWNSSALAQKPYSGRRPDAIRLGLGNHNYCRNPDRDSKPWCYVFKAGKYSSEFCSTPACSEGNSDCYFGNGSAYRGTHSLTESGASCLPWNSMILIGKVYTAQNPSAQALGLGKHNYCRNPDGDAKPWCHVLKNRRLTWEYCDVPSCSTCGLRQYSQPQFRIKGGLFADIASHPWQAAIFAKHRRSPGERFLCGGILISSCWILSAAHCFQERFPPHHLTVILGRTYRVVPGEEEQKFEVEKYIVHKEFDDDTYDNDIALLQLKSDSSRCAQESSVVRTVCLPPADLQLPDWTECELSGYGKHEALSPFYSERLKEAHVRLYPSSRCTSQHLLNRTVTDNMLCAGDTRSGGPQANLHDACQGDSGGPLVCLNDGRMTLVGIISWGLGCGQKDVPGVYTKVTNYLDWIRDNMRP | >100 µg | 
soybean trypsin inhibitor: serine protease blocker (protein, UniProt P01070 25-205, looked up) Trypsin inhibitor A: DFVLDNEGNPLENGGTYYILSDITAFGGIRAAPTGNERCPLTVVQSRNELDKGIGTIISSPYRIRFIAEGHPLSLKFDSFAVIMLCVGIPTEWSVVEDLPEGPAVKIGENKDAMDGWFRLERVSDDEFNNYKLVFCPQQAEDDKCGDIGISIDHDDGTRRLVVSKNKPLVVQFQKLDKESL |  | Effect on cbz-FAF[^125I]Y-NH2 degradation by C6 plasma membranes, in words [3]: had no effect
